According to patent US20260217793A1 (Chugai, published 2026):
Where a chain is given by its changes, count along the chain named. Blank lines part the entries; values can stand above or below the binder they belong to.

Experiments:
[1] = molecular target: T1, mouse FcγRIII (mouse, UniProt P08508 31-215); assay: SPR
T1 sequence (looked up): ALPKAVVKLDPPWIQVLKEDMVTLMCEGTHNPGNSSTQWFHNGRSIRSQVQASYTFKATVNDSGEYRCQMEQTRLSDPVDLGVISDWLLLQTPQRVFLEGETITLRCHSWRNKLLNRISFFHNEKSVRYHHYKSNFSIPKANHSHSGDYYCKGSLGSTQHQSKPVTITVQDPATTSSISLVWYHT

[2] = molecular target: T2, mouse FcγRIIb (mouse, UniProt P08101 30-210); assay: SPR
T2 sequence (looked up): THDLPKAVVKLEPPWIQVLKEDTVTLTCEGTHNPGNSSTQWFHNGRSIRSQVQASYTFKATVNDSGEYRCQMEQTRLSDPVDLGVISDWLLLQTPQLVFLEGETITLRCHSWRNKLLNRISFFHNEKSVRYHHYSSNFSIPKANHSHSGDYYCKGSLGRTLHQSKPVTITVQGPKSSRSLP

[3] = molecular target: T1, mouse FcγRIII; assay: SPR; remark: listed apart in the source
[4] = molecular target: T2, mouse FcγRIIb; assay: SPR; remark: listed apart in the source
[5] = molecular target: human IgA (recombinant, variable region from an anti-human IL6R antibody) (human); assay: SPR
[6] = molecular target: human IgA (hIgA); assay: SPR, comparison of calcium conditions
[7] = molecular target: T3, FcγRIIa type H extracellular domain with C-terminal His tag (human, UniProt P12318 34-217); assay: SPR
T3 sequence (looked up): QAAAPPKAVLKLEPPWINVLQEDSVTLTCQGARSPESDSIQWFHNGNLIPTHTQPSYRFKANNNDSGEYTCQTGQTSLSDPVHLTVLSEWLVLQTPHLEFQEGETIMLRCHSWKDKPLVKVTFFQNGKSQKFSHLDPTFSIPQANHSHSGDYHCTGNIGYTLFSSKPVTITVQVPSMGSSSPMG

[8] = molecular target: T4, human FcγRIIa type R (Arg131) extracellular domain with C-terminal His tag (human, UniProt P12318 34-217); assay: SPR
T4 sequence (looked up): T3 sequence (looked up) with H134R

[9] = molecular target: T5, human FcγRIIb extracellular domain with C-terminal His tag (human, UniProt P31994 43-217); assay: SPR
T5 sequence (looked up): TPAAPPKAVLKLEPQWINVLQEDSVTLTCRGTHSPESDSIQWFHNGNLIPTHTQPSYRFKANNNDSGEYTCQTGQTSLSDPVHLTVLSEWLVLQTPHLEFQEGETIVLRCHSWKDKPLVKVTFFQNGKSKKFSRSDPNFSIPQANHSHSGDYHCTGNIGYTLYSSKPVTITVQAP

[10] = molecular target: human FcγRIa extracellular domain with C-terminal His tag (human, UniProt P12314 16-292); assay: SPR
[11] = molecular target: FcγRIIIa type V extracellular domain with C-terminal His tag (human, UniProt P08637 17-208); assay: SPR
[12] = molecular target: T6, human FcγRIIb extracellular domain with C-terminal His tag (human, UniProt P31994 43-217); assay: ratio of SPR KDs, FcγRIIaR over FcγRIIb
T6 sequence (looked up): T5 sequence (looked up)

[13] = molecular target: T6, human FcγRIIb extracellular domain with …; assay: ratio of SPR KDs, reference IL6R-B3/IL6R-L
[14] = molecular target: T7, human FcγRIIa type R (131Arg) extracellular domain with C-terminal His tag (human, UniProt P12318 34-217); assay: ratio of SPR KDs, reference IL6R-B3/IL6R-L
T7 sequence (looked up): T3 sequence (looked up) with H134R

[15] = molecular target: T8, human FcγRIIa type R (human, UniProt P12318 34-217); assay: ratio of SPR KD values
T8 sequence (looked up): T3 sequence (looked up) with H134R

[16] = molecular target: T9, human FcγRIIb (human, UniProt P31994 43-217); assay: ratio of SPR KD values
T9 sequence (looked up): T5 sequence (looked up)

[17] = molecular target: T8, human FcγRIIa type R; assay: SPR, amount bound per captured antibody
[18] = molecular target: T9, human FcγRIIb; assay: SPR, amount bound per captured antibody

FcγRIIIa type V extracellular domain with C-terminal His tag, sequence (P08637 17-208 F176V): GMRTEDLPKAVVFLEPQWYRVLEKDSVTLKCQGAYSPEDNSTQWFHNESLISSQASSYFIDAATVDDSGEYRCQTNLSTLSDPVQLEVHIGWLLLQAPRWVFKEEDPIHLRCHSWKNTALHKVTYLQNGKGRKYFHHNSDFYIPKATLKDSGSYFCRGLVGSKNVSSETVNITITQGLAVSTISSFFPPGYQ
human FcγRIa extracellular domain with C-terminal His tag, sequence (P12314 16-292): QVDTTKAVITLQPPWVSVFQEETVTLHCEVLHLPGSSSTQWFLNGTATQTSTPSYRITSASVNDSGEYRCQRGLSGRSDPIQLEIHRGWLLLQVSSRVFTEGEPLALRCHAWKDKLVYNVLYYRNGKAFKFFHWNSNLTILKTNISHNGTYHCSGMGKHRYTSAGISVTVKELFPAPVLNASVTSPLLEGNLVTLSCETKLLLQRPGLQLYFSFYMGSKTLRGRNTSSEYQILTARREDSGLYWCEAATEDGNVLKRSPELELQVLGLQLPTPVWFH

B2: GA2-IgG1 (antibody, V domains shown)
VH: QVQLVQSGAEVKKPGSSVKVSCKASGGTFSSYAISWVRQAPGQGLEWMGGIIPIFGTANYAQKFQGRVTITADESTSTAYMELSSLRSEDTAVYYCARPRWETAISSDAFDIWGQGTMVTVSS
VL: DIQMTQSPSSLSASVGDRVTITCRASQSISDDLNWYQQKPGKAPKLLIYEASNLQSGVPSRFSGSGSGTDFTLTISSLQPEDFATYYCQQHSSSPLTFGQGTKVEIKR
- kon [5]: 400000 M⁻¹ s⁻¹

B3: GA2-IgG1 (antibody, V domains shown)
VH: B2 VH
VL: B2 VL
- Ca-dependent hIgA-binding activity (fold) [6]: ≥ 100 fold

B4: IL6R-BP245/IL6R-L (antibody, human IgG1, kappa)
heavy: QVQLQESGPGLVKPSETLSLTCAVSGHSISHDHAWSWVRQPPGEGLEWIGFISYSGITNYNPSLQGRVTISRDNSKNTLYLQMNSLRAEDTAVYYCARSLARTTAMDYWGEGTLVTVSSASTKGPSVFPLAPSSKSTSGGTAALGCLVKDYFPEPVTVSWNSGALTSGVHTFPAVLQSSGLYSLSSVVTVPSSSLGTQTYICNVNHKPSNTKVDKKVEPKSCDKTHTCPPCPAPDLLGDDSVFLFPPKPKDTLMISRTPEVTCVVVDVQDEDGEVKFNWYVDGVEVHNAKTKPREEQDNSTYRVVSVLTVLHQDWLNGKEYKCKVSNDALPRPIEKTISKAKGQPREPQVYTLPPSRDELTKNQVSLTCLVKGFYPSDIAVEWESNGQPENNYKTTPPVLDSDGSFFLYSKLTVDKSRWQQGNVFSCSVMHEALHNHYTQESLSLSP
light: not shown
- Kd [7]: 23 µM

B6: IL6R-BP248/IL6R-L (antibody, human IgG1, kappa)
heavy: B4 heavy with Q269S, D328A
light: not shown
- Kd [11]: 4400 µM

B7: IL6R-BP478/IL6R-L (antibody)
heavy: QVQLQESGPGLVKPSETLSLTCAVSGHSISHDHAWSWVRQPPGEGLEWIGFISYSGITNYNPSLQGRVTISRDNSKNTLYLQMNSLRAEDTAVYYCARSLARTTAMDYWGEGTLVTVSSASTKGPSVFPLAPCSRSTSESTAALGCLVKDYFPEPVTVSWNSGALTSGVHTFPAVLQSSGLYSLSSVVTVPSSSLGTKTYTCNVDHKPSNTKVDKRVESKYGPPCPPCPAPDLLGDDSVFLFPPKPKDTLMISRTPEVTCVVVDVSDEDGEVKFNWYVDGVEVHNAKTKPREEQDNSTYRVVSVLTVLHQDWLNGKEYKCKVSNKALPRPIEKTISKAKGQPREPQVYTLPPSRDELTKNQVSLTCLVKGFYPSDIAVEWESNGQPENNYKTTPPVLDSDGSFFLYSKLTVDKSRWQQGNVFSCSVMHEALHNHYTQESLSLSP
light: not shown
- KD (IIaR)/KD (IIb) [12]: 28
- KD (IIb) of parent polypeptide/KD (IIb) of altered polypeptide [13]: 161
- KD (IIaR) of parent polypeptide/KD (IIaR) of altered polypeptide [14]: 2

B8: IL6R-BP478/IL6R-L (antibody)
heavy: B7 heavy
light: not shown
- binding relative to IL6R-BP230/IL6R-L [15]: 0.9 fold
- binding relative to IL6R-BP230/IL6R-L [16]: 1.1 fold

Second part, the binder after the results:

- Kd [1]: 0.0454 µM
- Kd [2]: 0.00132 µM
- binding ratio compared to mIgG1 [3]: 6.2
- binding ratio compared to mIgG1 [4]: 159
B1: VH3/L(WT)-mIgG1-MB367 (antibody)
heavy: QVQLQESGPGLVKPSETLSLTCAVSGHSISHDHAWSWVRQPPGEGLEWIGFISYSGITNYNPSLQGRVTISRDNSKNTLYLQMNSLRAEDTAVYYCARSLARTTAMDYWGEGTLVTVSSAKTTPPSVYPLAPGSAAQTNSMVTLGCLVKGYFPEPVTVTWNSGSLSSGVHTFPAVLQSDLYTLSSSVTVPSSTWPSETVTCNVAHPASSTKVDKKIVPRDCGCKPCICEANEVEDVFIFPPKPKDVLTITLTPKVTCVVVDISKDDPEVQFSWFVDDVEVHTAQTQPREEQFNSTFRSVSELPIMHQDWLNGKEFKCRVNSAAFPAPIEKTISKTKGRPKAPQVYTIPPPKEQMAKDKVSLTCMITDFFPEDITVEWQWNGQPAENYKNTQPIMDTDGSYFVYSKLNVQKSNWEAGNTFTCSVLHEGLHNHHT
light: not shown

- KD (IIaR) of parent polypeptide/KD (IIaR) of altered polypeptide [8]: 1.5
- KD (IIb) of parent polypeptide/KD (IIb) of altered polypeptide [9]: 128
- binding result [10]: binds
B5: IL6R-BP500/IL6R-L (antibody, human IgG1, kappa)
heavy: B4 heavy with D235E, V266I, Q269A, D270E, D328K, R332A
light: not shown

- relative binding activity (IL6R-F652/IL6R-L = 100) [17]: 100
- relative binding activity (IL6R-F652/IL6R-L = 100) [18]: 100
B9: IL6R-F652/IL6R-L (antibody, human IgG1, kappa)
heavy: QVQLQESGPGLVKPSETLSLTCAVSGHSISHDHAWSWVRQPPGEGLEWIGFISYSGITNYNPSLQGRVTISRDNSKNTLYLQMNSLRAEDTAVYYCARSLARTTAMDYWGEGTLVTVSSASTKGPSVFPLAPSSKSTSGGTAALGCLVKDYFPEPVTVSWNSGALTSGVHTFPAVLQSSGLYSLSSVVTVPSSSLGTQTYICNVNHKPSNTKVDKKVEPKSCDKTHTCPPCPAPELLGGDSVFLFPPKPKDTLYISRTPEVTCVVVDVSHEDPEVKFNWYVDGVEVHNAKTKPREEQYNSTYRVVSVLTVLHQDWLNGKEYKCKVSNKALPAPIEKTISKAKGQPREPQVYTLPPSRDELTKNQVSLTCLVKGFYPSDIAVEWESNGQPENNYKTTPPVLDSDGSFFLYSKLTVDKSRWQQGNVFSCSVMHEALHYHYTQKSLSLSP
light: not shown
